According to US20250179155A1 (VANDERBILT UNIVERSITY, published 2025):
Residue numbers refer to the chain shown, from its start.

B1: B0C10 (VHH)
VHH: QVQLQESGGGLVQPGGSLRLSCTASGFTRKHYTIGWFRQAPGKEREGVSCITTPDNSTYYKDSVKGRFTISRDNAKNTVYLQMNNVKPEDTAVYYCGASALGGSSCAQSSSVLHRLFQWGQGTQVTVSS
B2: A2F10 (VHH)
VHH: QVQLQESGGGLVQPGGSLRLSCAASGRSFSSGAMGWFRQAPGKEREFVGVGWSGGLIDYAASVRGRFTITRDKAKNTVYLRMDSLRPEDTAVYYCAINSANSCAGYDCHDKPQVYDYWGQGTQVTVSS
B3: A2A8 (VHH)
VHH: QVQLQESGGGLVQAGDSLRLSCTASGGTFSSYSIGWFRQAPGLEREFVALITWRNNTYLGDSVRERFAISRDNAKNTVYLQMNSLKPEDTAVYSCAARERRVARIQEFDYWGQGTQVTVSS
B4: A1C1 (VHH)
VHH: QVQLQESGGGLVQAGGSLRLSCAASGGTFSSYSVGWFRQAPGLEREFVGMITWRGITYFEDFVKDRFNISRDNAKNTVYLQMNSLKPEDTAVYSCAARDRRAARIQEFDYWGQGTQVTVSS
B5: A2H9 (VHH)
VHH: QVQLQESGGGLVQAGGSLRLSCAASGRASSTYVMAWFRQAPGKEREFVAADTWGGAGTYYAPSVKGRFTISRDNAKNMLYLQMNSLKPEDTAAYYCAAGQGRSVTLFQPSTYDYWGQGTQVTVSS
B6: A1G4 (VHH)
VHH: QVQLQESGGGLVQAGGSLRLSCAVSGRTLNSYAMGWFRQALGKEREFVAGISRAGGMTRYTDSVKGRFTISRDDAKNTVYLQMNSLKPDDTAVYSCAASFALVDSAGAYDYWGQGTQVTVSS
B7: A2G5 (VHH)
VHH: B6 VHH with N30S, A54G, F100Y, V103I, S105M, A106S, G107S
B8: B0B7 (VHH)
VHH: QVQLQESGGGSVQPGGSLRLSCAASGSIYGMMMMAWYRQRTGEQRELVANFTRDGSTNYVDSVKGRFTISRDNDKKMVYLQMKDLKPEDTAVYYCNIQRYWGKGTAVTVSS
B9: A1D1 (VHH)
VHH: QVQLQESGGGLVQAGGSLRLSCAASGRTFSTHTMAWFRQAPGKEREFVTGIRWSDGMTIYADSVKGRFTISRDKATNTMYLEMNTLKPDDTAVYYCGAGPTMYHPTYWGQGTQVTVSS
B10: A2B10 (VHH)
VHH: QVQLQESGGGTVQPGGSLRLSCAASGRDFSSGAMGWFRQTPGNEREFVGVGWSGGLIDYSDSVKGRFTITRDKLKNEVYLRMDRLKPEDTAVYFCAVNSANSCAGYDCHDKPQTYNYWGQGTQVTVSS
B11: A1C4 (VHH)
VHH: QVQLQESGGGLVQPGGSLRLSCAASGRSFSINTMGWYRQAPGNKRDMVATITTGGNTNYADSVKGRFTISRDNAKNTVYLQMNSLKPEDTAVYYCRTVVVTPYPDEFEYDYWGQGTQVTVSS
B12: B1E7 (VHH)
VHH: QVQLQESGGGLVQPGGSLRLSCAASGSLRSGYVMSWHRQAPGKQRELVASITTGDITQYGASVKGRFTISRDETKNMGWLQMNSLLPEDTAVYYCKITELPTVSVYWGQGTQVTVSS
B13: B0E2 (VHH)
VHH: QVQLQESGGGLVLPGGSLRLSCAASGTVFKIYVMGWYRQAPGKQRELVATISNGGTPNYADSVKGRFTISGDRAKNTVFLQMSSLNVEDTAVYYCNRRQLEGRQSEDYWGQGTQVTVSS
B14: B2C5 (VHH)
VHH: QVQLQESGGGLVQPGGSLRLSCAASGLTSGTYVMSWFRQAPGKEREFVAAIRDAGGIRNYADSVKGRFTISRDAAKNMIFLQMNSLKPEDTAVYYCKFLRLPESLAYWGQGTQVTVSS
B15: A2B5 (VHH)
VHH: QVQLQESGGGLVQAGGSLRLSCTPSERTFSAYTMAWYRQPPGKEREFAAGIKWSGSGGITLYADSVKGRFTISGDNAKSTVYLEMNSLKPEDTAVYYCTAGPTVYNPHYWGQGTQVTVSS
B16: B0A9 (VHH)
VHH: QVQLQESGGGLVQPGGSLRLTCTSSTSINIYPYMGWYRQAPGKQRERVATVNRDGNTNYLDSVKGRFTITRDDAKKTICLQMNNLEPEDTAVYYCNNFGSSSWGQGTQVTVSS
B17: B0D11 (VHH)
VHH: QVQLQESGGGLAQPGGSLRLSCAASGFTFSHAVMSWFRQAPGKERELVAGWRSAGGITNYADSVKGRFTISGDNAKDVVYLQMNSLKPEDTAVYYCKAFVVGSAYWGQGTQVTVSS
B18: B1C10 (VHH)
VHH: QVQLQESGGGLVQPGGSLRLSCLASGLSLSTDVMSWFRQAPGKERELVAGIRSAGWITNYADSVKGRFTISVDSAKNTVYLQMNSLKPEDTAVYYCKVLRLPDGLAFWGQGTQVTVSS
B19: A2A6 (VHH)
VHH: QVQLQESGGGLVQAGGSLRLSCADSGRTFSRYEMGWSRQAPGKEREFVAVINRLGRSTYYADSVKGRFTISRDNAKNTVYLQMNSLKPEDTAVYYCAAGVRLNLPQIPDVIDFWGQGTQVTVSS
B20: A1H1 (VHH)
VHH: QVQLQESGGGLVQAGGSLRLSCAASGGTFSKTSVGWFRQAPGLEREFVALITWSGNTYFVDSVRERFAISRDNAENTVYLQMNSLEPEDTAVYYCAARERTAARIQEFDYWGQGTQVTVSS
B21: A1C11 (VHH)
VHH: QVQLQESGGGLVQAGDSLRLSCAASGRTFSRYAMGWFRQAPGKEREFVAAISWSGGTTYYADSVKGRFTISRDNAKNTVYLQMNSLKPEDTAVYYCAAGLFRGDLTRFKLDEYDYRGQGTQVTVSS
B22: A2F12 (VHH)
VHH: B21 VHH with D16G, G56D, Y60D, I70V, R107K, K109E
B23: A1D8 (VHH)
VHH: B21 VHH with D16G, A23V, R27G, M34L, W53Y, G56A, Y80F, L100F, R107K
B24: A2C2 (VHH)
VHH: B21 VHH with A14T, D16G, A23T, P41S, W53Y, A61S, N77S, Y80S, K109T
B25: A1H5 (VHH)
VHH: QVQLQESGGGLVQPGGSLRLSCAASGSIFSINAMGWYRQAPGKQRELVASITSGGSTNYADSVKGRFTISRDGAKNTVYLQMNSLKPEDTAVYYCHVPWTDDFGWAVKDYWGQGTQVTVSS
B26: A2H4 (VHH)
VHH: B25 VHH with S50K, S56T, H96N, V97L, D101S, F103L
B27: B2C11 (VHH)
VHH: QVQLQESGGGLVHVGESLTLSCVAPGSIFGVNTMAWYRQAPGKQRELVAAISPGGYTNYAEFVKGRFGISRDKAKNTVYLQMNDLKPEDTAVYYCNYRSGTSRPNTNWGQGTQVTVSS
B28: B0B11 (VHH)
VHH: QVQLQESGGGLVQPGGSLRLSCATSGFYFPNYAMSWHRQAPGQERELVARITSAGGSTDYADSVKGRFTISRDNSKNTVYLQMNGLISEDTAVYYCNADPSYGTRYWGQGTQVTVSS
B29: A1G6 (VHH)
VHH: QVQLQESGGGLVQPGGSLRLSCAASGRAFSSYAMGWFRQTPGKEREFVAVISWSGGSTYYADSVKGRFTISRDNTKNMVYLQMMSLKPEDTAVYYCAADFSQPLLATVPDDYDYWGQGTQVTVSS

Assays:
[1] = biological target: full-length TcdB (TcdB1-2366), VPI10463 (Clostridioides difficile strain VPI10463, UniProt P18177 1-2366); test: cell-based or functional assay
[2] = biological target: full-length TcdA (TcdA1-2710) (Clostridioides difficile strain VPI10463, UniProt P16154 1-2710); test: cell-based or functional assay
[3] = biological target: T1, TcdA-GTD (TcdA1-542) (Clostridioides difficile strain VPI10463, UniProt P16154 1-542); test: ELISA-like screen of clone lysates on isolated domains
T1 construct: range 1-542; also called TcdA glucosyltransferase domain

Sequence of full-length TcdB (TcdB1-2366), VPI10463 (P18177 whole entry): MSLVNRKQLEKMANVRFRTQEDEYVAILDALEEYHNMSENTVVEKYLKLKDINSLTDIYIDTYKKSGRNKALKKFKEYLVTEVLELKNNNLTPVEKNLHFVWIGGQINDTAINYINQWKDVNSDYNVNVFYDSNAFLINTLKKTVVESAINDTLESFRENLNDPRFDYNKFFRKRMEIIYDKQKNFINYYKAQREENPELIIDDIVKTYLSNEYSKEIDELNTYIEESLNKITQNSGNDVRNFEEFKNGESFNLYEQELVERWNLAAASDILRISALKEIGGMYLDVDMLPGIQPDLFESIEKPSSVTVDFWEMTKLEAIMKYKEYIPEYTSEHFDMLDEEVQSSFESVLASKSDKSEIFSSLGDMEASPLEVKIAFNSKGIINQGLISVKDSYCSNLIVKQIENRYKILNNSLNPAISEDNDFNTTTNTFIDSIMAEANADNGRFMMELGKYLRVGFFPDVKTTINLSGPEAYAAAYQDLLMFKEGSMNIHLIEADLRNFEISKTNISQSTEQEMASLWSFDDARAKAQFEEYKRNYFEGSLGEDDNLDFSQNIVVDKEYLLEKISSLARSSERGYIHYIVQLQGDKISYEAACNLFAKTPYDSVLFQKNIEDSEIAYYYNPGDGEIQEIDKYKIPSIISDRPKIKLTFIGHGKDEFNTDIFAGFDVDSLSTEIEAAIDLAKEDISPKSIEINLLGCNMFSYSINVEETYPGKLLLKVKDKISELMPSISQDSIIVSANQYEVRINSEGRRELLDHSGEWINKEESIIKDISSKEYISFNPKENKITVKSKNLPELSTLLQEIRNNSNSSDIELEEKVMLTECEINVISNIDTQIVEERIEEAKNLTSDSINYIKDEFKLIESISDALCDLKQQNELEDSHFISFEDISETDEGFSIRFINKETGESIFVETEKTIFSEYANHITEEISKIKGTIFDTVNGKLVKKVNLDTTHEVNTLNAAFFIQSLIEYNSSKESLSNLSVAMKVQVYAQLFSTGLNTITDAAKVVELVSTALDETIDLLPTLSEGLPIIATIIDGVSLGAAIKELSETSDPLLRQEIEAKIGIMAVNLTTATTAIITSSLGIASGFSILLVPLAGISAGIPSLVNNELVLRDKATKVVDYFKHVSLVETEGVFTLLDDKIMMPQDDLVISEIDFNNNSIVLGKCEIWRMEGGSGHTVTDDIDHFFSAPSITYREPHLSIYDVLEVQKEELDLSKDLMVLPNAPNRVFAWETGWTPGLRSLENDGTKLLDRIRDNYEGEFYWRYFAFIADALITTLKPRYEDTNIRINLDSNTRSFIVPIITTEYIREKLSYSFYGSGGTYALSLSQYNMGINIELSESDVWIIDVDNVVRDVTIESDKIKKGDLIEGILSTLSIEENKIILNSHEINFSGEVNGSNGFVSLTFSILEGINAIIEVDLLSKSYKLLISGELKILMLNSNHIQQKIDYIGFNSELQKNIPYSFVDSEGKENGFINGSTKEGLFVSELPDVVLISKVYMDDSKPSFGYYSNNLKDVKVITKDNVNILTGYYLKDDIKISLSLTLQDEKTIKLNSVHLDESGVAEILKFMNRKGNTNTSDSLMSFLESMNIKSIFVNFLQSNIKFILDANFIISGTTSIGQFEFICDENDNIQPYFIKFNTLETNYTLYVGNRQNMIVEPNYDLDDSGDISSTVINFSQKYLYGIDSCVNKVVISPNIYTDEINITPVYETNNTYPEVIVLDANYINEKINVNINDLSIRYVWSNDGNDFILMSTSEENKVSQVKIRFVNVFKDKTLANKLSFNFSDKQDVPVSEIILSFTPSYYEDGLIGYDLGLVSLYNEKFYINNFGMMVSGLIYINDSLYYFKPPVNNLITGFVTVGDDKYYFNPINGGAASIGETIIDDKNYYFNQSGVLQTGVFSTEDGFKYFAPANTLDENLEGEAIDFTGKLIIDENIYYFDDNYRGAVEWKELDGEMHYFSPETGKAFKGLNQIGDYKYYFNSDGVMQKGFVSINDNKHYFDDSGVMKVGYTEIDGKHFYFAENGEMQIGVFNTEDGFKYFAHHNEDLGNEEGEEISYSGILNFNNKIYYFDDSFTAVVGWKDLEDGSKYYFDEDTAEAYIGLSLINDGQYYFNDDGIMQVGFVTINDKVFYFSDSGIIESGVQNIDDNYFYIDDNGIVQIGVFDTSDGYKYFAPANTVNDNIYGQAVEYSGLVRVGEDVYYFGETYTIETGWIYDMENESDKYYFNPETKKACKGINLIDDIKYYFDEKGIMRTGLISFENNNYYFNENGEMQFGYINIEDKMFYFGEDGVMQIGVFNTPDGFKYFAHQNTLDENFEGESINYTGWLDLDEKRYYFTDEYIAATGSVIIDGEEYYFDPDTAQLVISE
Sequence of full-length TcdA (TcdA1-2710) (P16154 whole entry, the tested form may be a part): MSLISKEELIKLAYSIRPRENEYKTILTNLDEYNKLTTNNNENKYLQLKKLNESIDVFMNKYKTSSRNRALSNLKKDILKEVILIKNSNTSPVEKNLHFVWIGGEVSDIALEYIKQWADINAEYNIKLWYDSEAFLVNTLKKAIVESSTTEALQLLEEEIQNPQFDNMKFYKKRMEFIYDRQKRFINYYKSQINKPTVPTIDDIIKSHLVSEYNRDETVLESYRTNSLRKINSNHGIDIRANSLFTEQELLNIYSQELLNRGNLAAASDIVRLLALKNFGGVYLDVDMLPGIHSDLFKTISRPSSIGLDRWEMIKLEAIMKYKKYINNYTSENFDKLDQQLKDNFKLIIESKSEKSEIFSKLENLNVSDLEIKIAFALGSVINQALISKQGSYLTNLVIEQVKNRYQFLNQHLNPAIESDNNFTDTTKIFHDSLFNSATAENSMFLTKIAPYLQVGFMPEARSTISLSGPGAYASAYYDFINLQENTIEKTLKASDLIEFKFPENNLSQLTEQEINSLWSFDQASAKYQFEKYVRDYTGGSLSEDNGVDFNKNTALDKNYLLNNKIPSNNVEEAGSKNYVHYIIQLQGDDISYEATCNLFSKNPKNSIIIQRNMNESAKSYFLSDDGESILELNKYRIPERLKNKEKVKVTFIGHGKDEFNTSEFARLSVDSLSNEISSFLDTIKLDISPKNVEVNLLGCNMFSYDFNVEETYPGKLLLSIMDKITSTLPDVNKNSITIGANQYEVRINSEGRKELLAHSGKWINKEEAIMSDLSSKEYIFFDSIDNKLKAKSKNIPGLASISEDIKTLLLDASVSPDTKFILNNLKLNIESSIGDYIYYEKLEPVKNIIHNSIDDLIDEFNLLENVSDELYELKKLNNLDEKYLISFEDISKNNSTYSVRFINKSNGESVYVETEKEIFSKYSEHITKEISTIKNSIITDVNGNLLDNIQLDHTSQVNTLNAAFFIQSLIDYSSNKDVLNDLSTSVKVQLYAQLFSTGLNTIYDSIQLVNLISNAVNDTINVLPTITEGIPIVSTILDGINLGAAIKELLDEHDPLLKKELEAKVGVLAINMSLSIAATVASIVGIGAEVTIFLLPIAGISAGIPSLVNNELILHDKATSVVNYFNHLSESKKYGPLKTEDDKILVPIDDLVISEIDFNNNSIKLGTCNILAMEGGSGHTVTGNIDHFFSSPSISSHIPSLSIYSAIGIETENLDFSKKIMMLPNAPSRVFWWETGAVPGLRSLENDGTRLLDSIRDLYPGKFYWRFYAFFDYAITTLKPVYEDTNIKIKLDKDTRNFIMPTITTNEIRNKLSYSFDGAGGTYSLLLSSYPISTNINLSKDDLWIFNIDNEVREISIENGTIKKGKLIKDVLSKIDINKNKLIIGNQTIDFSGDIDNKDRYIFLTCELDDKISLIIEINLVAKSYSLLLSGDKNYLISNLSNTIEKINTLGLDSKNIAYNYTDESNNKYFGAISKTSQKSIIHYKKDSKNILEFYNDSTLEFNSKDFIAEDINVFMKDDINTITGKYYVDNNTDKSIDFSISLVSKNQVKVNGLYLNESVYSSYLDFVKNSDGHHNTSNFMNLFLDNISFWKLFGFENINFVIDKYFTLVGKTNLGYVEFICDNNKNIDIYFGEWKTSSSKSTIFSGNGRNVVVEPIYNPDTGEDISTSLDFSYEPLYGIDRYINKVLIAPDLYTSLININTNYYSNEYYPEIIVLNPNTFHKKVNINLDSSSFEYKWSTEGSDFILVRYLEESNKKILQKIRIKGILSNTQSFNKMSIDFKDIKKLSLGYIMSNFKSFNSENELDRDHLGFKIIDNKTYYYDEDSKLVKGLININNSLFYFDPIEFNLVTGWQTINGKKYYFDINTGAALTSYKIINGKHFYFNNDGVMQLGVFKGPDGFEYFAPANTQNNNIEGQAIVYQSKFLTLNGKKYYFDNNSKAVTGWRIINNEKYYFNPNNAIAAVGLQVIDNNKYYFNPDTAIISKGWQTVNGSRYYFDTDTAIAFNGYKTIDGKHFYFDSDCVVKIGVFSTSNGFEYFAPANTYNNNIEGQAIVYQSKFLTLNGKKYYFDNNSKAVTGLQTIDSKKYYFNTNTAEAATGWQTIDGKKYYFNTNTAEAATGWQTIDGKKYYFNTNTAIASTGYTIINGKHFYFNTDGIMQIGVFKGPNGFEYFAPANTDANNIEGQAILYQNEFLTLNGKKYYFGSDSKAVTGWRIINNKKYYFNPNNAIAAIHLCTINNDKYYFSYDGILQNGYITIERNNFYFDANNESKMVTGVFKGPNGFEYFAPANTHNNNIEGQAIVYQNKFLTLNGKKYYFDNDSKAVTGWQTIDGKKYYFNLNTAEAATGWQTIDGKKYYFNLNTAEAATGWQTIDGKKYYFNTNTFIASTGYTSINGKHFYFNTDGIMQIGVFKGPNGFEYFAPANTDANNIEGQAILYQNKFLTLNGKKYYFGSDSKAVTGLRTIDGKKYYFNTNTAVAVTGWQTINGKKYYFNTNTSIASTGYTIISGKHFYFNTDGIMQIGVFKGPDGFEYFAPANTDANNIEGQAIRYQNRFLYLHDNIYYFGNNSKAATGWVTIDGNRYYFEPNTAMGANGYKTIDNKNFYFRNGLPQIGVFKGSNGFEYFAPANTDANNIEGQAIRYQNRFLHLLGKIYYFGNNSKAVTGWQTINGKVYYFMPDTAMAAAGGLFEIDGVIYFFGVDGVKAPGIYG

Binder | EC50 (nM), TcdB neutralization, Vero cells [1] | EC50 (nM), TcdA neutralization, T84 cells [2] | binding result [3] | EC50 (nM), TcdA neutralization, Vero cells [2] | other results
B1 | 1.3 nM | – | – | – | EC50 (nM), TcdB neutralization, Caco-2 cells [1]: < 1 nM
B2 | – | 455 nM | – | – | –
B3 | – | – | – | – | EC50, TcdA neutralization, T84 cells [2]: > 10 µM
B4 | – | – | – | – | EC50, TcdA neutralization, T84 cells [2]: > 10 µM
B5 | – | 105 nM | no binding | 8.7 nM | –
B6 | – | 844 nM | no binding | 8.5 nM | –
B7 | – | – | no binding | – | EC50, TcdA neutralization, T84 cells [2]: > 10 µM
B8 | < 1 nM | – | – | – | –
B9 | – | – | no binding | – | –
B10 | – | 678 nM | – | – | –
B11 | – | 60.3 nM | no binding | 2.5 nM | –
B12 | 10 nM | – | – | – | –
B13 | 28 nM | – | – | – | EC50 (nM), TcdB neutralization, Caco-2 cells [1]: < 1 nM
B14 | < 1 nM | – | – | – | –
B15 | – | – | no binding | 11.1 nM | –
B16 | 12.9 nM | – | – | – | EC50 (nM), TcdB neutralization, Caco-2 cells [1]: 1.3 nM
B17 | 176 nM | – | – | – | EC50 (nM), TcdB neutralization, Caco-2 cells [1]: 111 nM
B18 | 2.2 nM | – | – | – | –
B19 | – | 91 nM | no binding | 1 nM | –
B20 | – | – | – | – | EC50, TcdA neutralization, T84 cells [2]: > 10 µM
B21 | – | 10.4 nM | no binding | < 1 nM | –
B22 | – | 1.1 nM | no binding | < 1 nM | –
B23 | – | 2.1 nM | no binding | < 1 nM | –
B24 | – | 2.4 nM | no binding | < 1 nM | –
B25 | – | – | no binding | 15.7 nM | –
B26 | – | 838 nM | no binding | 40.9 nM | –
B27 | < 1 nM | – | – | – | –
B28 | 350 nM | – | – | – | EC50 (nM), TcdB neutralization, Caco-2 cells [1]: 161 nM
B29 | – | – | no binding | 6.4 nM | –
